Target: the molecule itself
Test: SEC

B1: wild-type pea cytosolic ascorbate peroxidase (APX) (enzyme)
chain: GKSYPTVSPDYQKAIEKAKRKLRGFIAEKKCAPLILRLAWHSAGTFDSKTKTGGPFGTIKHQAELAHGANNGLDIAVRLLEPIKEQFPIVSYADFYQLAGVVAVEITGGPEVPFHPGREDKPEPPPEGRLPDATKGSDHLRDVFGKAMGLSDQDIVALSGGHTIGAAHKERSGFEGPWTSNPLIFDNSYFTELLTGEKDGLLQLPSDKALLTDSVFRPLVEKYAADEDVFFADYAEAHLKLSELGFAEA
- stoichiometry N: 2

Reference: article PMC3699407 (Nature biotechnology, 2012)
